Here are results for 1 molecule from paper PMC8402755.

This series deals with HIV-1 RT (HIV-1, UniProt P03366;P03366 600-1159;600-1039). As to the kind of experiment: off-rate (dissociation with trap); dissociates much more slowly than from dsDNA N1. Particulars: protein: recombinant; copies: 1;1; label: 5'-32P on the 33 nt DNA primer; 33 nt DNA primer on 50 nt RNA template; template 5' overhang 15 nt, 3' overhang 2 nt.

B1: D33-R50 RNA/DNA hybrid primer-template (DNA:RNA)
DNA: TCCCCGGGTACCGAGCTCGAATTCGCCCTATAG
RNA: UUGUAAUACGACUCACUAUAGGGCGAAUUCGAGCUCGGUACCCGGGGAUC
B1: the binding result is reported as “binds”.
